Laboratory results published in the DeepSol protein solubility set.

Test: soluble on expression in E. coli; label from the status in PepcDB or PDB records

Soluble on expression in E. coli, not soluble:
MGSDKIHHHHHHMEELIQKALSSSNKVSSNSLIEKIIPVGGGCIHKAWSIHFQNGKRVFAKSNYIDNINMFKFERECLSVLKRFANESYICVPETLDLISYQNISILFLEWIDLKQCQQNVLGKGLALLHKSSSEWSKKNFGWEEEGFIGSSTQARGWKSNWGEFFVNYRLRPQLLQAKAWGVRVEDYEDVLIYLSSYLNDHQPKTSLVHGDLWSGNCGSTKNGLGSLYDPACYWADREVDISMTKLFGGFNREFYKGYEEIWPLNKFSKDRNDIYNLYHLLNHANIFGGSYKENSLKILKDLRSRV
MGSDKIHHHHHHMEESPLSRAPSRGGVNFLNVARTYIPNTKVECHYTLPPGTMPSASDWIGIFKVEAACVRDYHTFVWSSVPESTTDGSPIHTSVQFQASYLPKPGAQLYQFRYVNRQGQVCGQSPPFQFREPRPMDELVTLEEADGGSDILLVVPKATVLQNQLDESQQERNDLMQLKLQLEGQVTELRSRVQELERALATARQEHTELMEQYKGISRSHGEITEERDILSRQQGDHVARILELEDDIQTISEKVLTKEVELDRLRDTVKALTREQEKLLGQLKEVQADKEQSEAELQVAQQENHHLNLDLKEAKSWQEEQSAQAQRLKDKVAQMKDTLGQAQQRVAELEPLKEQLRGAQELAASSQQKATLLGEELASAAAARDRTIAELHRSRLEVAEVNGRLAELGLHLKEEKCQWSKERAGLLQSVEAEKDKILKLSAEILRLEKAVQEERTQNQVFKTELAREKDSSLVQLSESKRELTELRSALRVLQKEKEQLQEEKQELLEYMRKLEARLEKVADEKWNEDATTEDEEAAVGLSCPAALTDSEDESPEDMRLPPYGLCERGDPGSSPAGPREASPLVVISQPAPISPHLSGPAEDSSSDSEAEDEKSVLMAAVQSGGEEANLLLPELGSAFYDMASGFTVGTLSETSTGGPATPTWKECPICKERFPAESDKDALEDHMDGHFFFSTQDPFTFE
MGSDKIHHHHHHMEFQCPLCRQRLHFHEESRGWHCDGKHHFDKKEIGYWDFYKGNKPRNAESRQELRARQFLVTSGLFQPAVEAMVKVLQTQDCGSERNCVNLGPGHAWIGKLLAQALSEHELPLKVFSPLESENEAFAAAKSGMEAVCLTPLKSLPFADASADMVWLLDIPAKGKEWQRILKPGGLLLMLAAGPRHLWQIKEFVYEGLTEKPFVLELSGQFDLISQTPVSWTHALSVADAKVLMGMAPWAWRVKEASLKAMEKGDFSGLEMDYRIILAKKRV
MGSDKIHHHHHHMEFSPPLQRATLIQRYKRFLADVITPDGRELTLHCPNTGAMTGCATPGDTVWYSTSDNTKRKYPHTWELTQSQSGAFICVNTLWANRLTKEAILNESISELSGYSSLKSEVKYGSERSRIDFMLQADSRPDCYIEVKSVTLAENEQGYFPDAVTERGQKHLRELMSVAAEGQRAVIFFAVLHSAITRFSPARHIDEKYAQLLSEAQQRGVEILAYKAEISAEGMALKKSLPVTL
MGSDKIHHHHHHMEFTSLWQEFARISEVEAIALGGSRATGNYDETSDYDLYIYCSSIPDEATRLTILKSFCSYIEIGNHFWELEDDCTLMSGQDIDILYRDINQIRDELVDVVERCIIQNAYTTCLWHNVLHSKILYDSDDKLKCIVNRFDINYPQKLKQTILSHHMNLLTGHLPSYDKQIIKAVMRKDIVSFNHRVTAFLETYFDLIFALNMLTHPGEKRMIAYAEQNAQSLPNHFQKNIERLIYGTTCHPYDIQDILNDILNELTPLLHDSIG
MGSDKIHHHHHHMEILLARQPIVDRFGSIDAFELLYRSVETPAVFDGDLATMDVLTNTLIHLGVDRVAEGKRLFINFTGDLLQSELIDHLNPTQFVIEVLETVQIDEMMLQTLQKWKEAGFVLALDDFVTDLLRHHGPELFDLIDLIKIDIEAINPREQSAILHILKRNYPHIRFLAERVETHEDHTRSLAMGYDWFQGYFYAKPMLMKGKAVPPQVPVLLKMLKWLDTDDHYDDVVDEIEGNPYISVQVLQLINSPGIGLRNMVSSVRQAISLLGFSQLKSWISLIVLREMKLASPYQWSDELLRSSLHCAKLCQLFATETKTLKAESAYMIGLLSHIDALLSVDIGEIIDQLPIEPALKNVLQGEDHPFRDCLLLAISADRGEFERFEMLSNRFGIMKHRAYELLKESQVWLSQKELHLQDKTDSIV
MGSDKIHHHHHHMELDILDALGEGWTLTPAGGITGEAYIASTGQSKLFLKRNSSPFLAILSADGIVPKLLWTKRIYSGDVISAQQFIEGQELEPEMMERPEVARLLGKIHDSKELLFMLQQLDQRPIEPDELLRQCRLYFQPAELAQPELIEQAIDYLSERLPYVRTDEQVVCHSDLNHNNWLVGTDGHLYLNDWDDAIIADRAYDLGMMLYSYVDEECWPEWFAHYGHPLTKDLKQRMYWYVVAQAVLSIYWYEDTMHPDATESYLFLAQLLEMEQED
